Read-outs that look alike come from different tables or passages of the source.
Assays:
[1] = test system: IgG4, monoclonal human (Homo sapiens); settings: ultrafiltration, Picogreen, 37.5 mM NaCl, 3.75 mM Na citrate, pH 6.0
[2] = test system: IgG1, monoclonal human (Homo sapiens); assay: filter; settings: pH 6, 41 mM Na+
[3] = test system: IgA, monoclonal human (Homo sapiens); assay: filter; settings: pH 6, 41 mM Na+
[4] = test system: IgG Fc fragment (human) (Homo sapiens), P01857-1; assay: filter; settings: pH 6, 41 mM Na+
[5] = test system: IgM, monoclonal human (Homo sapiens); assay: filter; settings: pH 6, 41 mM Na+
[6] = test system: IgG Fab2 fragment (mouse) (Mus musculus); assay: filter; settings: pH 6, 41 mM Na+
[7] = test system: IgG, polyclonal mixed human (Homo sapiens); assay: filter; settings: pH 6, 41 mM Na+
[8] = test system: IgG2, monoclonal human (Homo sapiens); assay: filter; settings: pH 6, 41 mM Na+
[9] = test system: IgG Fab2 fragment (human) (Homo sapiens); assay: filter; settings: pH 6, 41 mM Na+
[10] = test system: IgG3, monoclonal human (Homo sapiens); assay: filter; settings: pH 6, 41 mM Na+
[11] = test system: IgG, polyclonal mouse (Mus musculus); assay: filter; settings: pH 6, 41 mM Na+
[12] = test system: IgG3, monoclonal human (Homo sapiens); settings: ultrafiltration, Picogreen; 37.5 mM NaCl, 3.75 mM Na citrate, pH 6.0
[13] = hexaethylene glycol (HEG, iSp18) linkers as loops

Sequence | Ka [1] | Ka [2] | Ka [3] | Ka [4] | Ka [5] | Ka [6] | Ka [8] | Ka [9] | Ka [10] | Ka [11] | also measured
CCCTCCCTGGGCTTTTTTTGATTTTTCTTAA [RAD4] | 7.13 log10 M-1 | 7.52 log10 M-1 | 7.66 log10 M-1 | 5.26 log10 M-1 | 6.89 log10 M-1 | 7.09 log10 M-1 | 7.67 log10 M-1 | 6.89 log10 M-1 | 6.66 log10 M-1 | 7.71 log10 M-1 | Ka ([7]; pH5 8.48, pH7 7.10, pH8 7.02, Table 2 pH 6 6.89): 8.13 log10 M-1
CCTCTTCCTTCTCCGGAGAAG [RAD1] |  |  |  |  |  |  |  |  |  |  | Ka ([1]; hexaethylene glycol (iSp18) linkers between the three segments): 6.37 log10 M-1
CCTCTTCHEGCTTCTCCHEGGGAGAAG [RAD1] |  |  |  |  |  |  |  |  |  |  | Ka [2, 13]: 6.38 log10 M-1; Ka [3, 13]: 6.37 log10 M-1; Ka [4, 13]: 5.8 log10 M-1; Ka [5, 13]: 6.32 log10 M-1; Ka [6, 13]: 6.38 log10 M-1; Ka ([7]; hexaethylene glycol (HEG, iSp18) linkers as loops, ultrafiltration, pH5 7.45, pH7 6.49, pH8 6.30, Table 2 (0.15 M NaCl, 1 mM MgCl2, pH 6) 7.01): 6.51 log10 M-1; Ka [8, 13]: 6.51 log10 M-1; Ka [9, 13]: 5.82 log10 M-1; Ka [10, 13]: 6.17 log10 M-1; Ka [11, 13]: 6.6 log10 M-1
CCTCTTCTTTTTCTTCTC [RAD20] | 7.67 log10 M-1 | 7.34 log10 M-1 | 7.53 log10 M-1 | 5.96 log10 M-1 | 7.02 log10 M-1 | 7.41 log10 M-1 | 7.85 log10 M-1 | 6.9 log10 M-1 | 6.84 log10 M-1 | 8.3 log10 M-1 | Ka ([7]; pH5 8.11, pH7 7.40, pH8 6.64): 7.98 log10 M-1
CCTCTTCTTTTTCTTCTCCTTTTTGGAGAAG [RAD2 (triplex 31mer)] | 7.08 log10 M-1 | 7.04 log10 M-1 | 6.9 log10 M-1 | 5.86 log10 M-1 | 6.73 log10 M-1 | 6.71 log10 M-1 | 7.06 log10 M-1 | 6.45 log10 M-1 | 6.64 log10 M-1 | 7.49 log10 M-1 | Ka ([7]; pH5 8.74, pH7 6.96, pH8 6.57, Table 2 pH 6 6.96): 7.61 log10 M-1
CCTTCCTTTGGAAGGTTG [RAD23] | 5.97 log10 M-1 | 6.14 log10 M-1 | 6.38 log10 M-1 |  | 6.08 log10 M-1 | 6.33 log10 M-1 | 6.86 log10 M-1 | 5.64 log10 M-1 | 5.62 log10 M-1 | 6.77 log10 M-1 | Ka ([7]; pH5 7.37, pH7 6.31, pH8 6.21): 6.88 log10 M-1
CGCGAAAACGCG [RAD22] |  |  |  |  |  |  |  |  |  |  | Ka ([7]; pH5 5.95, pH7 6.04, pH8 5.97): 6.25 log10 M-1
CTCTCTCTTTTTCTCTCTCTTTTTGAGAGAG [RAD9] | 7.06 log10 M-1 | 7.05 log10 M-1 | 6.95 log10 M-1 | 5.87 log10 M-1 | 6.79 log10 M-1 | 6.75 log10 M-1 | 7.05 log10 M-1 | 6.44 log10 M-1 |  | 7.46 log10 M-1 | Ka [12]: 6.62 log10 M-1; Ka ([7]; pH5 8.67, pH7 7.04, pH8 6.94, Table 2 pH 6 7.02): 7.74 log10 M-1
GAGAGAGTTTTTGAGAGAGTTTTTCTCTCTC [RAD7] | 7.16 log10 M-1 | 7.3 log10 M-1 | 7.33 log10 M-1 | 5.99 log10 M-1 | 6.89 log10 M-1 | 6.97 log10 M-1 | 7.25 log10 M-1 | 6.68 log10 M-1 | 6.74 log10 M-1 | 7.69 log10 M-1 | Ka ([7]; pH5 8.51, pH7 6.97, pH8 6.79, Table 2 pH 6 6.86): 8.04 log10 M-1
GAGTGAGTCTCAGTTAGTTTCGATTGATTCT [RAD5] |  |  |  |  |  |  |  |  |  |  | Ka ([7]; pH5 8.75, pH7 7.11, pH8 6.81, Table 2 pH 6 6.82): 8.03 log10 M-1
GGAAAGGTTTTTGGAAAGGTTTTTCCTTTCC [RAD6] |  |  |  |  |  |  |  |  |  |  | Ka ([7]; pH5 8.50, pH7 6.86, pH8 6.74, Table 2 pH 6 6.84): 7.96 log10 M-1
GGTTGGTTTGGTTGG [RAD13] |  |  |  |  |  |  |  |  |  |  | Ka ([7]; pH5 7.55, pH7 6.46, pH8 6.53): 6.96 log10 M-1
TGGAGTCTGCGCGAGTCAGCGCTCAAGATC [RAD8] |  |  |  |  |  |  |  |  |  |  | Ka ([7]; pH5 8.41, pH7 6.86, pH8 6.84, Table 2 pH 6 6.13): 7.85 log10 M-1
TGGGCCGGTAACGGATTACCGTAAGGTCCC [RAD11] |  |  |  |  |  |  |  |  |  |  | Ka ([7]; pH5 8.31, pH7 6.85, pH8 6.85, Table 2 pH 6 6.51): 7.64 log10 M-1
TGGGCCGGTAACGGGTTACCGTAAGGTCCC [RAD10] | 7 log10 M-1 | 7.04 log10 M-1 | 6.92 log10 M-1 | 5.92 log10 M-1 | 6.7 log10 M-1 | 6.76 log10 M-1 | 7.01 log10 M-1 | 6.43 log10 M-1 |  | 7.53 log10 M-1 | Ka [12]: 6.62 log10 M-1; Ka ([7]; pH5 8.41, pH7 6.81, pH8 6.72, Table 2 pH 6 6.31): 7.65 log10 M-1
TGGTTGGTTTTTGGAAGGATTTTTTCCTTCC [RAD3] | 7.2 log10 M-1 | 7.45 log10 M-1 | 7.38 log10 M-1 | 6.34 log10 M-1 | 6.71 log10 M-1 | 7.09 log10 M-1 | 7.36 log10 M-1 | 6.97 log10 M-1 | 6.69 log10 M-1 | 7.69 log10 M-1 | Ka ([7]; pH5 8.60, pH7 6.86, pH8 6.76, Table 2 pH 6 6.71): 7.79 log10 M-1
TTTGGTTGGTTTGGTTGG [RAD19] |  |  |  |  |  |  |  |  |  |  | Ka ([7]; inosine (I) at printed positions [inosine (written G): 4,14], pH5 7.82, pH7 6.50, pH8 6.04): 7.14 log10 M-1
TTTTCGCGCGTACGCGCGCGAA [RAD15] | 6.13 log10 M-1 | 6.39 log10 M-1 | 6.23 log10 M-1 |  | 6.19 log10 M-1 | 6.21 log10 M-1 | 6.18 log10 M-1 | 5.33 log10 M-1 |  | 6.35 log10 M-1 | Ka [12]: 6.22 log10 M-1; Ka ([7]; pH5 7.65, pH7 6.33, pH8 6.19): 7 log10 M-1
TTTTCGCGCGTTAACGCGCGAA [RAD16] | 6.54 log10 M-1 | 6.87 log10 M-1 | 6.46 log10 M-1 |  | 6.26 log10 M-1 | 6.11 log10 M-1 | 6.11 log10 M-1 | 6.23 log10 M-1 |  | 7.07 log10 M-1 | Ka [12]: 6.31 log10 M-1; Ka ([7]; pH5 8.22, pH7 7.25, pH8 6.79): 7.8 log10 M-1
TTTTCGCGTGTGTGCGCGAA [RAD12] |  |  |  |  |  |  |  |  |  |  | Ka ([7]; pH5 7.61, pH7 6.37, pH8 5.74): 6.98 log10 M-1
